Patent publication US20200262921A1 (SHANGHAI KANDA BIOTECHNOLOGY, published 2020)
Like-named read-outs stand apart in the source and are kept apart here.

How the values were obtained:
[1] = biological target: T1, Recombinant human CTLA-4-Fc fusion protein (R&D Systems, Catalog number 352-CTY/CF) (human, UniProt P16410 37-162); test: ELISA, plates coated with purified rhCTLA-4, 4-parameter fit; C5 mAb
T1 construct: range 37-162; Bought reagent; also called rhCTLA-4; rhCTLA-4-Fc; not shown: immunoglobulin gamma I Fc region
T1 sequence (looked up): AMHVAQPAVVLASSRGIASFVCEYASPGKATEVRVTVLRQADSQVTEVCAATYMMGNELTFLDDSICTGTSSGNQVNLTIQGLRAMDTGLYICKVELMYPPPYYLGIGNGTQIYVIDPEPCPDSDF

[2] = biological target: T1, Recombinant human CTLA-4-Fc fusion …; test: BLI (Fortebio), mAb captured on sensors, rhCTLA-4-Fc in solution 100 nM to 1.6 nM
Method: Kinetic analysis of binding to rhCTLA-4. […] The sensors were then blocked in the blocking solution for 5 min. Recombinant human CTLA-4-Fc protein was two-fold serial diluted in the blocking solution to 7 different concentrations, range from 100 nM to 1.6 nM. Kinetic association assays were started by putting antibody-capturing sensors into above serial diluted CTLA-4-Fc solutions. One sensor was immersed into the blocking solution as negative control. After 5 min binding, all sensors were moved to the blocking solution to start kinetic dissociation assays. Assays were stopped after 7 min.

[3] = biological target: T1, Recombinant human CTLA-4-Fc fusion …; test: ELISA on coated rhCTLA-4, goat anti-human IgG F(ab') alkaline phosphatase, OD 415 nm
[4] = biological target: T1, Recombinant human CTLA-4-Fc fusion …; test: ELISA on coated CTLA-4 (rhCTLA-4-Fc), scFv phage at one amount, anti-M13-HRP, absorbance at 450 nm
[5] = biological target: T1, Recombinant human CTLA-4-Fc fusion …; test: ELISA, plates coated with purified rhCTLA-4, 4-parameter fit; C2 mAb
[6] = biological target: T1, Recombinant human CTLA-4-Fc fusion …; test: competition ELISA on coated rhCTLA-4-Fc, 10 ng/ml biotin-B7-1-Fc mixed with the antibody, streptavidin alkaline phosphatase, absorption at 405 nm
Method: Human recombinant CTLA-4-Fc (2 ug/ml) in 50 ul of 20 mM NaHCO3, pH 9.7 was coated on 96-well plates and incubated at 4° C. overnight. After rhCTLA-4-Fc was removed, the plates were blocked with 100 ul of 3% BSA in wash/dilution buffer (TBS buffer, pH 7.0 containing 0.05% Tween-20) at 37° C. for 2 hours. […] The mixtures (50 ul/well) were added to rhCTLA-4-Fc coated plates and incubated at 37° C. for 2 hours. The solution was decanted, and the plates were washed 3 times with wash buffer. Alkaline phosphatase conjugated streptavidin (Herochem Inc., China) was diluted 2500-fold in binding buffer and add 50 ul/well to plates. After the plates were incubated at 37° C. for 2 hours, the AP-streptavidin solution was decanted, and the plates were washed 6 times with wash buffer. Alkaline phosphatase substrate pNpp solution was added 50 ul/well to plates. The plates were incubated at 37° C. for 20 min and read at 405 nm using a Bio-Rad microplate reader. […] All samples were tested in duplicate.

[7] = biological target: T1, Recombinant human CTLA-4-Fc fusion …; test: ELISA on coated rhCTLA-4, goat anti-human IgG F(ab') alkaline phosphatase, OD 415 nm; remark: listed apart in the source

B1: C5 mAb (anti-human CTLA-4 full length human monoclonal antibody) (antibody, V domains shown)
VH: QVQLVQSGAEVKKPGASVKVSCKASGFSFPNYYMHWVRQAPGQGLEWMGIISPTGGSRTYAQKFQGRVTITRDTSTSTVYMELSSLRSEDTAVYYCAREMYNWNGGWDYGMDVWGQGTLVTVSS
VL: QSALTQSASVSGFPGQSITVSCVGTNSDVEAYDLVSWYRQHPDKSPNLLIYDNYKRPSGVSDRFSAFKSGNTASLTISGLQAEDEAYYYCCSYAGFSTWIFGAGTQLTVLG
notes: also called clone C5; KD6001-5
B1 showed an EC50 [1] of 0.066 µg/mL, a Kd [2] of 2.2 nM and a koff [2] of 0.00061 s⁻¹. For the same binder, the kon [2] was 280000 M⁻¹ s⁻¹ and the “EC50 (read off the curve)” value [3] was roughly 0.08 µg/mL.

B2: C15 (scFv, V domains shown, not shown: large carriers; small tags and cut ends)
VH: QVQLVQSGAEVKKPGSSVKVSCKASGGTFSSYAISWVRQAPGQGLEWMGGIIPIFGTANYAQKFQGRVTITADESTSTAYMELSSLRSEDTAVYYCARDTAMALFYYYYGMDVWGQGTLVTVSS
VL: QSALTQPASVSGSPGQSTTISCTGTSSDVGGYNYVSWYQQHPGKAPKLMIYEVSNRPSGVSNRFSGSKSGNTASLTISGLQAEDEADYYCSSYRSSGTPYVFGTGTKLTVL
notes: scFv phage form of clone C15; also called clone C15 scFv phage; C15 scFv; copies: 1 + 1
B2: binds [4].

B3: C2 mAb (anti-human CTLA-4 full length human monoclonal antibody) (antibody, V domains shown)
VH: QVQLVQSGGGVVQPGRSLRLSCAASGFTFSSYGMHWVRQAPGKGLEWVAVIWYDGSRQYYADSVKGRFTISRDDSKNTMYLQMNSLRAEDTAVYYCARGGFWGAFDIWGQGTMVTVSS
VL: DVVMTQSPGTLSLSPGEGATLSCRASQHVISSYLAWYQQKPGQAPRLLVYGASSRDTGVSDRFTGSGSGTDFTLTISRLEPEDSAVYFCQQYGTSPWTFGQGTKLEIKR
notes: also called clone C2; KD6001-2
B3 showed a Kd [2] of 0.86 nM, a koff [2] of 0.00048 s⁻¹ and a kon [2] of 550000 M⁻¹ s⁻¹. The EC50 [5] was 0.025 µg/mL, the “IC50 (read off the curve)” value [6] was roughly 0.03 µg/mL and the “EC50 (read off the curve)” value [7] was roughly 0.03 µg/mL.
